Patent US20130145485

Columns and labels:
Test in all cases: cell_activity
[1] = test system: ZFN 32398 (synthetic construct); details: pair 32401/32398, DLSSA reporter in Neuro2A; pVAX control 0.16
[2] = test system: ZFN 9940 (synthetic construct); details: pair 12897/9940 with donor, CF iPS cells; 21 of 64 clones; scale: % puroR clones with targeted insertion
[3] = test system: ZFN 32366 (synthetic construct); details: pair 32365/32366, K562 cells
[4] = test system: ZFN 12897 (synthetic construct); details: pair 12897/9940 with donor, CF iPS cells; 21 of 64 clones; scale: % puroR clones with targeted insertion
[5] = test system: ZFN 32365 (synthetic construct); details: pair 32365/32366, K562 cells
[6] = test system: ZFN 32376 (synthetic construct); details: pair 32375/32376, K562 cells
[7] = test system: ZFN 32401 (synthetic construct); details: pair 32401/32398, DLSSA reporter in Neuro2A; pVAX control 0.16
[8] = test system: ZFN 32375 (synthetic construct); details: pair 32375/32376, K562 cells

ACACCAATGATATTTTCTTTAATGGTGC (double strand) [32398 target site]
activity (firefly/renilla ratio) [1]: 1.45

AGTGATTATGGGAGAACTGGATGTTCACAGTCAGTCCACACGTC (double strand) [9940 target site]
activity [2]: 33

ATATAGATACAGAAGCGTCATCAAAGCA (double strand) [32366 target site]
activity [3]: 9 % indels

ATTAGAAGTGAAGTCTGGAAATAAAACC (double strand) [12897 target site]
activity [4]: 33

CATCATAGGAAACACCAAAGATGATATT (double strand) [32365 target site]
activity [5]: 9 % indels

CCAACTAGAAGAGGTAAGAAACTATGTG (double strand) [32376 target site]
activity [6]: 12 % indels

CCTATGATGAATATAGATACAGAAGCGT (double strand) [32401 target site]
activity (firefly/renilla ratio) [7]: 1.45

GCTTTGATGACGCTTCTGTATCTATATT (double strand) [32375 target site]
activity [8]: 12 % indels
